Data as given in article doi:10.1101/2023.03.13.532366 (bioRxiv, 2023).

Target: T1, biotinylated mIL-12Rβ2_(D1-D6)-Casp3-AviTag-His6 (mouse, UniProt P97378 24-637, biotin on the AviTag (in vitro biotinylation with BirA))
T1 sequence (looked up): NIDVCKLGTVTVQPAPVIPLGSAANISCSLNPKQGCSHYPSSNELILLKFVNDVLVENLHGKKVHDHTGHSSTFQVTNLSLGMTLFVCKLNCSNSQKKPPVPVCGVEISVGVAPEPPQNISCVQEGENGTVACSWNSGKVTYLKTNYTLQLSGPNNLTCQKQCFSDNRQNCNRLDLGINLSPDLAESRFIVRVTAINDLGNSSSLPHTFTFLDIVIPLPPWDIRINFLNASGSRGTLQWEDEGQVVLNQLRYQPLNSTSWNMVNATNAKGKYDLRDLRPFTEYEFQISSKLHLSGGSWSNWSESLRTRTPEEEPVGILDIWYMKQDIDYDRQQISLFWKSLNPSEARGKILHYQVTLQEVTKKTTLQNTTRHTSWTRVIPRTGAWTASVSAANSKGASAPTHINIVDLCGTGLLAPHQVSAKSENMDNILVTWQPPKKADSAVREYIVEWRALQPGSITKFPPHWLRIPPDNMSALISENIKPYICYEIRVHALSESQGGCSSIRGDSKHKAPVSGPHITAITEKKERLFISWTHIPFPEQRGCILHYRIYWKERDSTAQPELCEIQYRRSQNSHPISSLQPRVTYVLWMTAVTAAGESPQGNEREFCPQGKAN
Test: BLI

- binding result: binds
B1: mIL-12 (mIL-12a-AviTag-His6 and untagged mIL-12b), analyte in BLI (complex, mouse)
chain 1: RVIPVSGPARCLSQSRNLLKTTDDMVKTAREKLKHYSCTAEDIDHEDITRDQTSTLKTCLPLELHKNESCLATRETSSTTRGSCLPPQKTSLMMTLCLGSIYEDLKMYQTEFQAINAALQNHNHQQIILDKGMLVAIDELMQSLNHNGETLRQKPPVGEADPYRVKMKLCILLHAFSTRVVTINRVMGYLSSA
chain 2: MWELEKDVYVVEVDWTPDAPGETVNLTCDTPEEDDITWTSDQRHGVIGSGKTLTITVKEFLDAGQYTCHKGGETLSHSHLLLHKKENGIWSTEILKNFKNKTFLKCEAPNYSGRFTCSWLVQRNMDLKFNIKSSSSSPDSRAVTCGMASLSAEKVTLDQRDYEKYSVSCQEDVTCPTAEETLPIELALEARQQNKYENYSTSFFIRDIIKPDPPKNLQMKPLKNSQVEVSWEYPDSWSTPHSYFSLKFFVRIQRKKEKMKETEEGCNQKGAFLVEKTSTEVQCKGGNVCVQAQDRYYNSSCSKWACVPCRVRS
